The target in assay [1] is AMC009 SOSIP trimer (SOSIPv4.2) (HIV-1). The assay can be described thus: cell-based or functional assay.
For assay [2], the target named is T1, AMC009 SOSIP trimer (SOSIP version not stated, negative stain EM) (HIV-1).
T1 construct: copies: 3 + 3
The assay can be described thus: negative stain electron microscopy. To be noted: both partners purified.

Results on 2 molecules are retold here after publication PMC9349188 (Nature Communications, 2022).

B1: ACS101 Y100fW mutant monoclonal antibody (IgG) (antibody, V domains shown)
VH: EVQLLESGAEVKKPGASVRVSCEASGYTFTKYFIHWVRQAPGHGLEWIGWINTLTSGVNYARNFQGRLTLTRDLSTETVYMDLRNLKSDDTAVYYCARGGRGYDEPWGAWTWLDPWGQGSLVTVSS
VL: SYELTQPASVSGSPGQSITISCTGSSIGSYDLVSWYQQYPGKAPKVIIFEVSKRPSGVSHRFSGSKSGNTAALTISGLQVEDEAIYHCYSYDDMIIFGGGTRLTVL
Regarding B1, the “neutralization of the AMC009 virus (TZM-bl cells), IC50 relative to ACS101” value in assay [1] was ~12 fold.

B2: ACS103 Fab (Fab, V domains shown)
VH: QVQLVQSGAEVKRPGASVRVSCEASGYRFTAYHIHWLRQAPGQGLEWMGWVNTLTSGVNYGWKFQGRVKMTRERSIDTDTAYLDLSGLRLDDTAVYYCARGNGKSDDERSTYQYFGPWGQGTLVTVSS
VL: QTVVTQPASVSGSPGQSITISCAGSSSDIGSYDYVSWYQQHPGKAPKVVIYDVTKRPSDISHRFSASKSGNTASLTISGLQPEDEAQYRCCTYAQTVLCGGGTKLTVL
The stoichiometry N is the number of molecules, sites or subunits per partner or assembly. Take B2: the “stoichiometry N” value in assay [2] is 3 Fabs per trimer.
